Test results: patent US20240034813A1 (Janssen / Centocor, published 2024)

Legend:
[1] = biological target: T1, recombinant human EGFR/ErbB1/HER1 with C-terminal His tag, Cy5-labeled (human, UniProt P00533 25-645, Cy5 label (reacted with Cy5 Mono NHS Ester; sites not stated)); assay: competitive TR-FRET (Eu-amivantamab/Cy5-EGFR), EC50 ratio vs Reference Material; Ex. 3 acetate formulation, 6 months at 25 C then shaking up to 72 h
T1 construct: Commercial protein; also called Cy5-EGFR; Cy5-labeled EGFR antigen; not shown: C-terminal His tag
From the text: (§1) In this procedure, varying concentrations of unlabeled bispecific EGFR-cMet antibody sample compete with donor fluorophore (Europium (Eu) chelate) labeled bispecific EGFR-cMet antibody for binding to an acceptor fluorophore (Cy5)-labeled EGFR antigen. Excitation of the donor fluorophore results in a transfer of energy to the bound acceptor fluorophore (FRET process). The resultant FRET is detected by emission of light at 665 nm using a microplate reader capable of measuring time-resolved fluorescence. Sample dose response curves are compared to the RM.
(§2) EGFR Binding Materials and Methods. Certified commercial EGFR, a recombinant human EGFR/ErbB1/HER1 with C-terminal His tag is reacted with certified commercial Cy5 Mono NHS Ester to produce Cy5-labeled EGFR. Validated bispecific EGFR-cMet antibody is reacted with certified commercial Europium (Eu) chelate to produce Eu-labeled bispecific EGFR-cMet antibody. […] Fluorescence is then measured by spectrophotometry at 665 nm, plotted against antibody concentration and analyzed by a four-parameter logistic model. The antibody concentration required to obtain half of the maximum fluorescence response (EC50) is determined for RM, assay control and samples. The potencies of assay control and samples are calculated based on the ratio of the sample (or control) and RM EC50 values and reported as a percentage activity relative to the RM.

[2] = biological target: T1, recombinant human EGFR/ErbB1/HER1 with …; assay: competitive TR-FRET (Eu-amivantamab/Cy5-EGFR), EC50 ratio vs Reference Material; Ex. 12 drug product with rHuPH20, 0 months, 25 C table
From the text: as §1, §2

[3] = biological target: T2, recombinant cMet/HGFR with c-terminal His-tag, Cy5-labeled (UniProt P08581 25-932, limits assumed, Cy5 label (reacted with Cy5 Mono NHS Ester; sites not stated)); assay: competitive TR-FRET (Eu-amivantamab/Cy5-c-MET), EC50 ratio vs Reference Material; Ex. 2 Formulation 1 (10 mM histidine), 1 month at 40 C
T2 construct: Commercial protein; also called Cy5-c-MET; Cy5-labeled c-MET antigen; not shown: C-terminal His-tag
From the text: as §1, with “(Cy5)-labeled c-MET” for “(Cy5)-labeled EGFR”, “the Reference Material (RM).” for “the RM.”
as §2, with “c-MET Binding” for “EGFR Binding”, “commercial cMet,” for “commercial EGFR,”, “recombinant cMet/HGFR” for “recombinant human EGFR/ErbB1/HER1”, “with c-terminal His-tag” for “with C-terminal His tag”, “Cy5-labeled c-MET.” for “Cy5-labeled EGFR.”, “produce Eu labeled” for “produce Eu-labeled”

[4] = biological target: T1, recombinant human EGFR/ErbB1/HER1 with …; assay: competitive TR-FRET (Eu-amivantamab/Cy5-EGFR), EC50 ratio vs Reference Material; Ex. 2 Formulation 1 (10 mM histidine), T0, 25 C table
From the text: as §1, §2

[5] = biological target: T2, recombinant cMet/HGFR with c-terminal …; assay: competitive TR-FRET (Eu-amivantamab/Cy5-c-MET), EC50 ratio vs Reference Material; Ex. 2 Formulation 3 (acetate), T0, 5 C table
From the text: as §1, with “(Cy5)-labeled c-MET” for “(Cy5)-labeled EGFR”, “the Reference Material (RM).” for “the RM.”
as §2, with “c-MET Binding” for “EGFR Binding”, “commercial cMet,” for “commercial EGFR,”, “recombinant cMet/HGFR” for “recombinant human EGFR/ErbB1/HER1”, “with c-terminal His-tag” for “with C-terminal His tag”, “Cy5-labeled c-MET.” for “Cy5-labeled EGFR.”, “produce Eu labeled” for “produce Eu-labeled”

[6] = biological target: T1, recombinant human EGFR/ErbB1/HER1 with …; assay: competitive TR-FRET (Eu-amivantamab/Cy5-EGFR), EC50 ratio vs Reference Material; Ex. 2 Formulation 3 (acetate), 3 months at 25 C
From the text: as §1, §2

[7] = biological target: T1, recombinant human EGFR/ErbB1/HER1 with …; assay: competitive TR-FRET (Eu-amivantamab/Cy5-EGFR), EC50 ratio vs Reference Material; Ex. 2 Formulation 3 (acetate), 1 month at 40 C
From the text: as §1, §2

[8] = biological target: T1, recombinant human EGFR/ErbB1/HER1 with …; assay: competitive TR-FRET (Eu-amivantamab/Cy5-EGFR), EC50 ratio vs Reference Material; Ex. 2 Formulation 3 (acetate), T0, 40 C table
From the text: as §1, §2

EGFR Binding % activity relative to RM [1]: 86% | EGFR Binding activity relative to Reference Material (%) [2]: 92% | cMET Binding % activity relative to RM [3]: 96% | EGFR Binding % activity relative to RM [4]: 103% | cMET Binding % activity relative to RM [5]: 94% | EGFR Binding % activity relative to RM [6]: 92% | EGFR Binding % activity relative to RM [7]: 76% | EGFR Binding % activity relative to RM [8]: 103%
B1: amivantamab (bispecific antibody, human IgG1, kappa)
heavy 1: not shown
light 1: not shown
heavy 2: not shown
light 2: DIQMTQSPSSVSASVGDRVTITCRASQGISNWLAWFQHKPGKAPKLLIYAASSLLSGVPSRFSGSGSGTDFTLTISSLQPEDFATYYCQQANSFPITFGQGTRLEIKRTVAAPSVFIFPPSDEQLKSGTASVVCLLNNFYPREAKVQWKVDNALQSGNSQESVTEQDSKDSTYSLSSTLTLSKADYEKHKVYACEVTHQGLSSPVTKSFNRGEC
notes: The samples tested were high concentration (160 mg/mL) formulations, fresh or stored or stressed; also called JNJ-61186372; bispecific EGFR-cMet antibody
